Numbering of substitutions follows the chain as printed. One block for each binder: values may come before it.
Assays:
[1] = target: T1, human CD3 (human, UniProt P07766 23-207; P09693 23-182; P04234 22-171); assay: apparent KD (KDapp), flow cytometry titration on purified primary human T cells
T1 construct: whole, on cells; also called CD3 on Jurkat T cells; CD3 on primary human T cells
Experimental: The binding characteristics of the purified anti-CD3 mAbs were assessed in titration studies on purified human primary T cells from different donor samples. Fresh ex vivo peripheral blood mononuclear cells (PBMCs) were obtained via density centrifugation over Ficoll-Paque using standard procedures and untouched T cell fractions obtained from PBMCs by negative pan-T cell selection and magnetic cell sorting. Starting from 300 nM concentrations of the anti-CD3 mAbs, eight point binding curves were generated from the resultant mean fluorescence intensity (MFI) values obtained through detection of labelled secondary antibody to bound CD3 in flow cytometry experiments (FIGS. 3A and 3B). Both commercial mouse anti-human CD3 mAb (OKT-3; Biolegend) and an in house generated IgG1 version of OKT-3 were employed as positive controls together with a non-specific mouse IgG serving as a negative binding control. Following curve fit analysis using one-site specific binding with Hill slope, the KDapp (concentration needed to achieve a half-maximum binding at equilibrium) for each mAb was calculated (Table 2).
Eight point binding titrations were performed with the anti-CD3 mAbs starting at either 300 or 100 nM on freshly purified human T cells obtained through negative selection from PBMC fractions. Briefly, 1×10⁵ human T cells (50 μL of staining buffer (SB; PBS/1% BSA/0.01% NaN3) were incubated with graded dilutions of the anti-CD3 mAbs in SB ([…]) for 2 hours at 4° C. in 96 w U-bottom plates, followed by plate washing with SB ([…]). Cell pellets were resuspended with 25 μL of a 0.25 mg/mL solution of the goat (Fab′)₂ anti-mouse IgG (H+L)− APC secondary antibody in SB, incubated at 4° C. (30 min.), washed 1× with SB, and resuspended for flow analysis. Recombinant anti-human OKT-3 IgG2b (in house produced) and non-specific mIgG were employed similarly as positive and negative controls respectively. 10K live events were acquired on a BD LSRFortessa flow analyzer and mean fluorescence intensities (MFI) calculated after subtraction of secondary antibody alone values. Using GraphPad Prism software, the data were analyzed using a one site specific binding with Hill slope non-linear regression model to calculate KDapp and BMax values (See Table 2).

[2] = target: T1, human CD3; assay: flow cytometry, hybridoma supernatant on CD3+ Jurkat cells
Experimental: Cells were stained with either negative control mouse IgG (Jackson Immunoresearch cat #115-000-003) or an anti-GFP 3E6 mAb supernatant or tested hybridoma supernatant. Specific binding was reflected by the increase in the mean fluorescent intensity of antibody binding to Jurkat T-cells (FIGS. 1A to 1F, grey histograms) compared to the Jurkat CD3 negative cell line J.RT3-T3.5 (FIGS. 1A to 1F, open histograms). AF488 labeled positive control mAb OKT3 was also analyzed.

[3] = target: T1, human CD3; assay: flow competition on Jurkat, 100 nM unlabeled mAb; competitor AF488-OKT-3 mIgG2b 1.5 nM
Experimental: (§1) In order to evaluate whether anti-CD3 monoclonal antibodies bind to the same epitope region, flow cytometry competition experiments on Jurkat cells were performed.
(§2) To that effect, a fixed concentration of the indicated AF488-labeled mAb were incubated with 100 nM of unlabeled monoclonal antibodies to assess if their binding capacity was impaired in presence of unlabeled mAbs. […] The AF488-OKT3 mIgG2b was labeled in-house using AlexaFluor488 protein labelling kit (Invitrogen #A10235) following manufacturer's instruction. The free dye removal step was done using Zeba™ Spin Desalting Columns, 7K MWCO (Thermo Scientific #89890). The final product was analyzed by UPLC-SEC to ensure the integrity of the labeled mAb.

[4] = target: T1, human CD3; assay: flow competition on Jurkat, 100 nM unlabeled mAb; competitor AF488-UCHT1 5 nM
Experimental: as §1, §2

[5] = target: T1, human CD3; assay: flow competition on Jurkat, 100 nM unlabeled mAb; competitor AF488-SK7 1.5 nM
Experimental: as §1, §2

[6] = target: T2, Cynomolgus CD3 (Cynomolgus, UniProt Q95LI5 22-198; Q95LI7 23-181; Q95LI8 22-171); assay: apparent KD (KDapp), flow cytometry titration on cynomolgus HSC-F T cell line
T2 construct: whole, on cells; also called CD3 on Cynomolgus PBMCs; CD3 on HSC-F Cynomolgus T cell line
Experimental: To characterize potential cross-reactivity of the anti-human CD3 mAbs to NHP T cells, dose response flow cytometry titration studies were performed on both freshly obtained Cynomolgus PBMCs (Comparative Medicine and Animal Resources Centre—McGill University) or the Cynomolgus derived T cell line, HSC-F (Non-Human Primate Reagent Resource—NIH). Binding studies on fresh Cynomolgus PBMCs was performed on a subset of anti-CD3 mAbs (FIG. 4) whereas the Herpesvirus saimiri immortalized Cynomolgus T cell line HSC-F was employed for further evaluations (FIGS. 5A to 5C). KDapp values were calculated using a non-linear regression model of one-site binding with Hill slope (GraphPad Prism) and tabulated (Table 3b). Similar KDapp values for anti-CD3 mAb 1E2 obtained from binding to fresh Cynomolgus PBMCs (KDapp=0.28 nM) or the HSC-F T cell line (KDapp=0.39 nM) indicated the HSC-F cell line was a suitable surrogate for ex vivo NHP T cells.
HSC-F T cells obtained from the Non-Human Primate Reagent Resource (NIH) were maintained in culture in RPMI media containing 20% FBS and 40 IU/mL recombinant human IL2. 100K HSC-F cells in logarithmic cell growth were treated with graded doses of the anti-CD3 mAbs starting at 100 nM in staining buffer (SB; PBS/1% BSA/0.01% NaN3) for 2 hours at 4° C. in 96 w V-bottom plates. Following plate washing with SB, the cell pellets were resuspended with 25 μL of goat (Fab′)₂ anti-mouse IgG (H+L)− APC secondary antibody (final 5 μg/mL), incubated for 30 minutes at 4° C., followed by flow cytometry analysis. The commercial NHP cross-reactive SP34.2 anti-CD3 mAb (BD Biosciences), recombinant anti-human OKT-3 IgG2b (in house produced) and non-specific mIgG were employed as controls. 20K live events were acquired on a BD LSRFortessa flow analyzer and mean fluorescence intensities (MFI) calculated after subtraction of secondary antibody alone values. Using GraphPad Prism software, the data were analyzed using a one site specific binding with Hill slope non-linear regression model to calculate KDapp and BMax values (See Table 2).

[7] = target: T1, human CD3; assay: flow competition on Jurkat, 100 nM unlabeled mAb; competitor AF488-SP34.2 20 nM
Experimental: as §1, §2

[8] = target: T1, human CD3; assay: apparent KD (KDapp), flow cytometry titration on Jurkat cells
Experimental: Unless otherwise stated, all media are kept are 4° C. and all incubations are performed on wet ice. Exponentially growing Jurkat cells were centrifuged and resuspended in complete medium at a cell density of 2×10⁶ cells/mL. Fifty μL/well of cells were distributed in a polypropylene v-bottom 96 well plate and serial 1/3 dilutions of purified mAbs starting at 300 nM were added and incubated for 2 hours. Cells were washed twice by centrifugation and further incubated with a FITC labeled F(ab′)2 goat anti-mouse antibody (Fc specific, #115-096-071, Jackson Immunoresearch, Cedarlane, Burlington, ON) for an hour. Cells were washed and re-suspended in medium containing Propidium iodide to exclude dead cells from analysis. Samples were filtered through a 60 μm nylon mesh filter plate (Millipore, Ireland) to remove cell aggregates. Flow cytometry analyses were performed on 2,000 viable single-cells events gated on forward scattering, side scattering parameters and propidium iodide dye exclusion using a BD-LSRFortessa flow cytometer (Becton-Dickinson Biosciences, CA, USA) and a standard filter set using BD FACSDiva™ acquisition software, according to manufacturer's instructions.

[9] = target: T1, human CD3; assay: cell-based or functional assay

T2 sequence (Q95LI5 22-198, chain 1 of 3): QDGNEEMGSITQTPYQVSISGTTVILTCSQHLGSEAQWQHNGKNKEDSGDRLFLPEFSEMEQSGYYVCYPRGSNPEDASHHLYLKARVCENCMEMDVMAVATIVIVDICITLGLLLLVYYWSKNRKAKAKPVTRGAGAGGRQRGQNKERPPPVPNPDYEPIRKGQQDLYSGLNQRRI
T2 sequence (Q95LI7 23-181, chain 2 of 3): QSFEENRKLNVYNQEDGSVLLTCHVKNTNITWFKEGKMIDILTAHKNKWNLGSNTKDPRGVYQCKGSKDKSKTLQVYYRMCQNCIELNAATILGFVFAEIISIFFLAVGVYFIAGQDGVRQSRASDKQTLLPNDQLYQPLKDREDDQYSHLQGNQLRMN
T2 sequence (Q95LI8 22-171, chain 3 of 3): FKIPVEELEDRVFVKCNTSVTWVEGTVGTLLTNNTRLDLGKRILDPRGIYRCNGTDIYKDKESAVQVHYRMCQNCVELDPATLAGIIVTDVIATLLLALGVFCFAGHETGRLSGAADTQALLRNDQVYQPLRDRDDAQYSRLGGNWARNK

Kd [1]: 30.1 nM | MFI [2]: 143 MFI | % residual fluorescence of labeled mAb [3]: 94% | % residual fluorescence of labeled mAb [4]: 80% | % residual fluorescence of labeled mAb [5]: 56% | Kd [6]: 2 nM | % residual fluorescence of labeled mAb [7]: 32% | Kd [8]: 3.7 nM | % max ref. OKT3 (dTomato activation) [9]: 60% | EC50 of dTomato induction (CD69 promoter), Jurkat-CD69-dTomato cells, 24 h [9]: 0.23 µg/mL
B1: F332-10B6 (antibody, mouse IgG2a, V domains shown)
VH: QVQLQQPGAELGKPGTSVNLSCKASGYTFTDYWIHWVKQRPGQGLEWIGNINPNSGDTNYNENFKTKATLTVDRSSSTAYMQLSSLTSEDSAVYYCTRDISGQYYFDFWGQGTTLTVSS
VL: DIVMSQSPSSLAVSAGEKVTMSCKSSQSLLNSRTRKNYLAWYQQKPGQSPKLLIYWASTRESGVPDRFTGSGSGTDFTLTISSVQAEDLAVYYCIQSYNLRTFGGGTKLEIK
notes: also called F332-10B6-2; F332-12B5-1

Kd [1]: 0.23 nM | MFI [2]: 302 MFI | % residual fluorescence of labeled mAb [3]: 86% | % residual fluorescence of labeled mAb [4]: 79% | % residual fluorescence of labeled mAb [5]: 53% | Kd [6]: 0.28 nM | % residual fluorescence of labeled mAb [7]: 9% | Kd [8]: 0.6 nM | % max ref. OKT3 (dTomato activation) [9]: 97% | EC50 of dTomato induction (CD69 promoter), Jurkat-CD69-dTomato cells, 24 h [9]: 0.25 µg/mL
B2: F332-7B7 (antibody, mouse IgG2a, V domains shown)
VH: QVQLQQPGTELGKPGTSVKLSCKASGYTFTNYWMHWVKQRPGQGLEWIGNINPNSGSTNYNQKFKSKATLTLDKSSSTAYMQFSTLTSEDSAVYYCTRDSSGQYYFDYWGQGTTLTVSS
VL: B1 VL with Y98F, N99H
notes: also called F332-7B7-2

Kd [1]: 0.26 nM | MFI [2]: 312 MFI | % residual fluorescence of labeled mAb [3]: 87% | % residual fluorescence of labeled mAb [4]: 59% | % residual fluorescence of labeled mAb [5]: 39% | Kd [6]: 0.97 nM | % residual fluorescence of labeled mAb [7]: 10% | Kd [8]: 0.8 nM | % max ref. OKT3 (dTomato activation) [9]: 80% | EC50 of dTomato induction (CD69 promoter), Jurkat-CD69-dTomato cells, 24 h [9]: 0.22 µg/mL
B3: F332-8F7 (antibody, mouse IgG2a, V domains shown)
VH: B1 VH with N19K, D31S, D57S, N63K, T66N, R74K, Y80S, S85T, F108Y
VL: B1 VL with A15T, E17G, K18E, N99S, E110G
notes: also called F332-8F7-3

Kd [1]: 0.2 nM | MFI [2]: 369 MFI | % residual fluorescence of labeled mAb [3]: 82% | % residual fluorescence of labeled mAb [4]: 63% | % residual fluorescence of labeled mAb [5]: 42% | Kd [6]: 0.61 nM | % residual fluorescence of labeled mAb [7]: 7% | Kd [8]: 0.6 nM | % max ref. OKT3 (dTomato activation) [9]: 87% | EC50 of dTomato induction (CD69 promoter), Jurkat-CD69-dTomato cells, 24 h [9]: 0.25 µg/mL
B4: F332-12F6 (antibody, mouse IgG2a, V domains shown)
VH: B2 VH with T9A, N31S, M34I, Q62E, L72V, F83L, S100I
VL: B1 VL with N37S
notes: also called F332-12F6-2

Source: patent publication US20250051443A1 (NATIONAL RESEARCH COUNCIL OF CANADA, published 2025)
